The target in assay [1] is HIV-1 APV-13 envelope glycoprotein (Env) on pseudovirus (HIV-1). The assay is described as follows: cell-based or functional assay.
For assay [2], the target named is HIV-1 Env of isolate ZM233 (HIV-1). The assay is described as follows: cell-based or functional assay.
The target in assay [3] is aMLV envelope protein on pseudotyped virus (negative control) (aMLV). The assay is described as follows: cell-based or functional assay.
Assay [4] deals with HIV-1 Env of isolate TR0.11 (HIV-1). The assay is described as follows: cell-based or functional assay.
The target in assay [5] is HIV-1 Env of isolate MGRM-C-025 (subtype C), on pseudovirus (HIV-1). The assay is described as follows: cell-based or functional assay.
For assay [6], the target named is HIV-1 Env of isolate MGRM-F1-020 (clade F), on pseudovirus (HIV-1). The assay is described as follows: cell-based or functional assay.
Assay [7] deals with HIV-1 Env of isolate SC422661.8 (subtype B) (HIV-1). Description: cell-based or functional assay.
The target of assay [8] is HIV-1 APV17 Env (clade B pseudovirus) (HIV-1). Description: cell-based or functional assay.
The target of assay [9] is HIV-1 92TH021 Env (clade AE pseudovirus) (HIV-1). The assay is described as follows: cell-based or functional assay.
In assay [10] the target is HIV-1 CMU02 Env (clade AE pseudovirus) (HIV-1). The assay is described as follows: cell-based or functional assay.
In assay [11] the target is HIV-1 MGRM-AG-005 Env (pseudovirus) (HIV-1). The assay is described as follows: cell-based or functional assay.
Assay [12] concerns the target HIV-1 Env of isolate APV13 (clade B) (HIV-1). Description: cell-based or functional assay.
The target of assay [13] is HIV-1 Env of isolate MGRM-C-026 (clade C) (HIV-1). Description: cell-based or functional assay.
The target in assay [14] is HIV-1 Env of isolate CMU02 (clade AE) (HIV-1). The assay is described as follows: cell-based or functional assay.
Assay [15] addresses HIV-1 Env of isolate NL43 (clade B) (HIV-1). Description: cell-based or functional assay.
The target of assay [16] is WT JR-FL gp120 (HIV-1 (isolate JR-FL)). Description: ELISA on coated gp120; EC50 by nonlinear regression. Background: In an ELISA, binding on a coated surface is turned into a signal by an enzyme label.
Assay [17] addresses JR-FL gp120 ΔV1/ΔV2 (HIV-1 (isolate JR-FL)). The assay is described as above.
The target in assay [18] is HIV-1 JR-CSF Env Q337A (HIV-1 isolate JR-CSF) (UniProt P20871). Description: cell-based or functional assay.
Assay [19] addresses HIV-1 JR-CSF Env T388A (HIV-1 (isolate JR-CSF)) (UniProt P20871). The assay is described as follows: cell-based or functional assay.
In assay [20] the target is HIV-1 JR-CSF Env N241A (HIV-1 JR-CSF) (UniProt P20871). The assay is described as follows: cell-based or functional assay.
Assay [21] has as its target HIV-1 JR-CSF Env I424A (HIV-1 (isolate JR-CSF)) (UniProt P20871). Description: cell-based or functional assay.
In assay [22] the target is HIV-1 JR-CSF Env N386A (HIV-1 isolate JR-CSF) (UniProt P20871). The assay is described as follows: cell-based or functional assay.
Assay [23] deals with HIV-1 JR-CSF Env T341A (HIV-1 isolate JR-CSF) (UniProt P20871). The assay is described as follows: cell-based or functional assay.
Assay [24] has as its target HIV-1 JR-CSF Env T297A (HIV-1 JR-CSF) (UniProt P20871). Description: cell-based or functional assay.
Assay [25] addresses HIV-1 Env of isolate MGRM-F1-017 (clade F), on pseudovirus (HIV-1). The assay is described as follows: cell-based or functional assay.
The target of assay [26] is HIV-1 envelope glycoprotein (Env) of isolate MGRM-Chronic-B-003, on pseudovirus (HIV-1). The assay is described as follows: cell-based or functional assay.
The target in assay [27] is HIV-1 Env of isolate MGRM-F1-023 (clade F), on pseudovirus (HIV-1). Description: cell-based or functional assay.
Assay [28] concerns the target HIV-1 Env of isolate MG RM-A-010 (pseudovirus) (HIV-1). Description: cell-based or functional assay.
For assay [29], the target named is HIV-1 Env of isolate 92UG001 (subtype D), on pseudovirus (HIV-1). Description: cell-based or functional assay.
Assay [30] has as its target HIV-1 Env of isolate 92UG037 (pseudovirus) (HIV-1). The assay is described as follows: cell-based or functional assay.
Assay [31] has as its target HIV-1 Env of isolate APV_17 (HIV-1). Description: cell-based or functional assay.
Assay [32] concerns the target HIV-1 Env of isolate 6535.3 (HIV-1). The assay is described as follows: cell-based or functional assay.
Assay [33] addresses HIV-1 Env of isolate MGRM-D-002 (subtype D), on pseudovirus (HIV-1). Description: cell-based or functional assay.
The target of assay [34] is HIV-1 Env of isolate 92RW009 (clade A), on pseudovirus (HIV-1). The assay is described as follows: cell-based or functional assay.
Assay [35] has as its target HIV-1 Env of isolate 92RW008 (clade A), on pseudovirus (HIV-1). The assay is described as follows: cell-based or functional assay.
Assay [36] deals with HIV-1 Env of isolate 92WR020 (pseudovirus) (HIV-1). The assay is described as follows: cell-based or functional assay.
The target of assay [37] is HIV-1 Env of isolate MG RM-A-005 (pseudovirus) (HIV-1). Description: cell-based or functional assay.
Assay [38] has as its target HIV-1 Env of isolate 93UG077 (pseudovirus) (HIV-1). The assay is described as follows: cell-based or functional assay.

1443_C16 (PG16) (TCN-116) (antibody) returned an IC90 (pseudovirus neutralization) in assay [1] of over 50 µg/mL. The same substance returned an IC50, pseudovirus neutralization (TZM-bl) in [2] of under 0.01 µg/mL. In assay [3], this substance displayed an IC50, pseudovirus neutralization, 1 hour Virus/Ab Incubation of over 50 µg/mL and an IC50, pseudovirus neutralization, 18 hour Virus/Ab Incubation of over 50 µg/mL. In addition, in assay [4], the IC50, pseudovirus neutralization (TZM-bl) is 3.61 µg/mL.
In [3], 1495_C14 (PGC14) (antibody) showed an IC50, pseudovirus neutralization, 1 hour Virus/Ab Incubation of over 50 µg/mL and an IC50, pseudovirus neutralization, 18 hour Virus/Ab Incubation of over 50 µg/mL.
Consider 1496_C09 (PG9) (TCN-109) (antibody), for which the figures for the IC50 (µg/mL), pseudovirus neutralization in assay [5] and in [7] were 0.148 µg/mL and 1.48 µg/mL, respectively. The IC50 (µg/mL), single-round pseudovirus neutralization in assay [6] is 6.4 µg/mL.
As to 4877_D15 (PGT-122) (antibody), in assay [8], the Neutralization by PGT-122, IC50 is 0.522 µg/mL; the Neutralization by PGT-122, IC80 is 1.76 µg/mL; the Neutralization by PGT-122, IC90 turned out to be 3.58 µg/mL; the Neutralization by PGT-122, IC95 stood at 6.92 µg/mL. In assay [9], the Neutralization by PGT-122, IC50 is over 10 µg/mL; the Neutralization by PGT-122, IC80 was over 10 µg/mL; the Neutralization by PGT-122, IC90 is over 10 µg/mL; the Neutralization by PGT-122, IC95 is over 10 µg/mL. Moreover, in assay [10], the Neutralization by PGT-122, IC50 is over 10 µg/mL; the Neutralization by PGT-122, IC80 is over 10 µg/mL; the Neutralization by PGT-122, IC90 is over 10 µg/mL; the Neutralization by PGT-122, IC95 was over 10 µg/mL.
One may read the IC50 as the concentration that gives 50% inhibition. A lower IC50 goes with higher potency. As a reminder, the IC80 is the point of the concentration-response curve where the effect stands at 80%. For orientation: IC90 means the concentration at which the effect reaches the 90% level. Higher therefore signals weaker potency. One may read the IC95 as the concentration needed for an effect of 95%. A higher IC95 goes with a need for much substance. In [11], 5141_B17 (PGT-126) (antibody) yielded an IC50 of 1.35 µg/mL, a concentration for an effect of 80% (IC80) of over 10 µg/mL, an IC90 of over 10 µg/mL and a 95% effect concentration (IC95) of over 10 µg/mL.
In assay [12], 5147_N06 (PGT-130) (antibody) gave a neutralization IC50 of 0.0345 µg/mL, a neutralization IC80 of 0.573 µg/mL, a neutralization IC90 of 2.88 µg/mL and a neutralization IC95 of over 10 µg/mL. In [13], this substance registered a neutralization IC50 of 0.0173 µg/mL, a neutralization IC80 of 0.263 µg/mL, a neutralization IC90 of 1.32 µg/mL and a neutralization IC95 of 6.13 µg/mL. In assay [14], this substance showed a neutralization IC50 of over 10 µg/mL, a neutralization IC80 of over 10 µg/mL, a neutralization IC90 of over 10 µg/mL and a neutralization IC95 of over 10 µg/mL. Moreover, in [15], the neutralization IC50 is over 10 µg/mL, the neutralization IC80 was over 10 µg/mL, the neutralization IC90 was over 10 µg/mL and the neutralization IC95 was over 10 µg/mL.
As a reminder, the EC50 is the concentration giving half of the maximal effect. Low values mean greater potency, high ones weaker potency. In the case of PGT-121 (antibody), the EC50 in assay [16] and in assay [17] was 0.2 µg/mL each time. The Fold IC50 increase relative to wild-type in assay [18] amounted to 1 fold; in assay [19], 0.9 fold; in [20], 0.5 fold; in [21], 0.9 fold; in assay [22] it was 1.3 fold; in [23], 0.5 fold. Besides, the Fold IC50 increase relative to wild-type in [24] was 0.7 fold.
PGT-122 (antibody): the EC50 in [16] and in [17] was 0.3 µg/mL in each case. For the same substance, the Fold IC50 increase relative to wild-type in assay [18] was determined as 0.5 fold; in assay [19] it was 0.3 fold; in assay [20] it was 1.4 fold; in assay [21], 0.8 fold; in [22], 1.2 fold; in assay [23] it was 0.3 fold. The Fold IC50 increase relative to wild-type in assay [24] was determined as 0.6 fold.
For PGV04 (antibody), the IC50 (µg/mL), pseudovirus neutralization in assay [5] was over 50 µg/mL; in assay [7], 0.11 µg/mL. The IC50 (µg/mL), single-round pseudovirus neutralization in assay [25] turned out to be 2.38 µg/mL; in assay [6] it was 5.99 µg/mL; in assay [27], 0.171 µg/mL. The IC50, pseudovirus neutralization in assay [26] stood at 0.258 µg/mL.
With VRC01 (antibody), the IC50 (µg/mL), pseudovirus neutralization came out at 0.325 µg/mL in assay [28]; 0.245 µg/mL in assay [30]; 0.13 µg/mL in assay [36]; 0.095 µg/mL in assay [37]; 0.097 µg/mL in assay [38]. Moreover, the IC50, pseudovirus neutralization was 1.16 µg/mL in assay [29] and 0.252 µg/mL in [33]. Moreover, the IC50 in assay [31] was determined as 0.477 µg/mL; in [32], 1.75 µg/mL. Besides, the figures for the IC50, single-round pseudovirus neutralization in assay [34] and in assay [35] were 0.187 µg/mL and 0.037 µg/mL, respectively.
In assay [1], b12 (antibody) registered an IC90 (pseudovirus neutralization) of over 50 µg/mL.

The values above are taken from patent US20200024330A1.
